The target in assay [1] is 92TH023 V2 cyclic peptide (HIV-1). Description: RPMI 8866 cell adhesion to coated peptide, mAb 10 ug/ml.
Assay [2] has the same target. Description: RPMI 8866 cell adhesion to coated peptide, mAb 5 ug/ml.
Assay [3] has as its target V2 aa 168-182 peptide (HIV-1). Description: ELISA on V2 peptide (FIG. 55A).
Assay [4] deals with 92TH023 V2 cyclic peptide (HIV-1). Description: RPMI 8866 cell adhesion to coated peptide, mAb 20 ug/ml.

B1: 697D (antibody, V domains shown)
VH: QVQLVQSGAEVKKPGSSVKVSCKASGGNFNTYTISWVRQAPGQGLEWMGRIIPIFGIVNPAQKFPGRVTINVDKSTNTAYMELSSLRSEDTAVYYCATSGVGLHFGYFDYWGQGTQVTVSS
VL: QSVLTQPPSVSGAPGQRVTISCTGSSSNIGAHYDVHWYQQLPGTAPKLLIYGNSNRPSGVPDRFSGSKSGTSASLAITGLQAEDEADYYCQSYDSSLSGYVFGTGTKVTVL
Regarding B1, the % inhibition (commonly the drop in the measured response relative to a control, in per cent) in assay [1] is -13.1%.

B2: CH59 (antibody, V domains shown)
VH: EVQLVESGGGLVQPGRSLRLSCAASGFTFDDGAMHWVRQAPGKGLEWVSGISWNSNIIAYADSVKGRFTISRDNAKNSLYLEMNSLRVEDTALYYCAKDSPRGELPLNYWGQGTLVTVSS
VL: SYELTQPPSVSVSPGQTARITCSGDALPKNYAYWYQQKSGQAPVLVIYEDSKRPSGIPERFSGSSSGTMATLTISGAQVEDEADYYCYSTDSSGNHRVFGGGTKLTVL
Regarding B2, the % inhibition was 36.7% in assay [1], 19.4% in assay [2] and 44.8% in assay [4]. Moreover, the EC50 – broadly, the concentration that produces a half-maximal response – in assay [3] is 3 ng/mL.

Source of the values: US9988424.
